Data as given in the Human Domainome abundance scans (Beltran et al. 2025).
± gives the uncertainty stated by the source.

B1: Tripartite motif-containing protein 49C, residues 87 to 133; numbered along this chain, P0CI26 (parent)
chain: SSEEQMCGTHRETKKIFCEVDRSLLCLLCSSSQEHRYHRHRPIEWAA

Variants of: B1
Assay: abundance fitness (aPCA) (normalised: wild type 0, dead -1); higher = more abundant; growth selection in yeast, the domain comes from the species named
Settings: Homo sapiens

Question: Which abundance fitness does the source give for SSEEQMCGYHRETKKIFCEVDRSLLCLLCSSSQEHRYHRHRPIEWAA [T9Y] here?
Answer: The abundance fitness was -0.183 ± 0.14.

Question: Which abundance fitness does the source give for SSEEQMCGVHRETKKIFCEVDRSLLCLLCSSSQEHRYHRHRPIEWAA [T9V] here?
Answer: The abundance fitness was 0.047 ± 0.077.

Question: For SSEEQMCGCHRETKKIFCEVDRSLLCLLCSSSQEHRYHRHRPIEWAA [T9C], which abundance fitness is on record?
Answer: Its abundance fitness is -0.565 ± 0.26.

Question: Which abundance fitness does the source give for SSEEQMCGLHRETKKIFCEVDRSLLCLLCSSSQEHRYHRHRPIEWAA [T9L] here?
Answer: Its abundance fitness is 0.151 ± 0.083.

Question: Which abundance fitness does the source give for SSEEQMCGHHRETKKIFCEVDRSLLCLLCSSSQEHRYHRHRPIEWAA [T9H] here?
Answer: Its abundance fitness is -0.153 ± 0.17.

Question: For SSEEQMCGNHRETKKIFCEVDRSLLCLLCSSSQEHRYHRHRPIEWAA [T9N], which abundance fitness is on record?
Answer: Its abundance fitness is -0.417 ± 0.2.

Question: With SSEEQMCGQHRETKKIFCEVDRSLLCLLCSSSQEHRYHRHRPIEWAA [T9Q] as the variant, how does the abundance fitness read?
Answer: The abundance fitness was 0.057 ± 0.1.

Question: Which abundance fitness does the source give for SSEEQMCGAHRETKKIFCEVDRSLLCLLCSSSQEHRYHRHRPIEWAA [T9A] here?
Answer: The abundance fitness was -0.235 ± 0.091.

Question: Which abundance fitness does the source give for SSEEQMCGMHRETKKIFCEVDRSLLCLLCSSSQEHRYHRHRPIEWAA [T9M] here?
Answer: Its abundance fitness is -0.265 ± 0.099.

Question: With SSEEQMCGWHRETKKIFCEVDRSLLCLLCSSSQEHRYHRHRPIEWAA [T9W] as the variant, how does the abundance fitness read?
Answer: The abundance fitness was -0.339 ± 0.12.

Question: With SSEEQMCGSHRETKKIFCEVDRSLLCLLCSSSQEHRYHRHRPIEWAA [T9S] as the variant, how does the abundance fitness read?
Answer: Its abundance fitness is -0.127 ± 0.09.

Question: For SSEEQMCGPHRETKKIFCEVDRSLLCLLCSSSQEHRYHRHRPIEWAA [T9P], which abundance fitness is on record?
Answer: Its abundance fitness is -0.503 ± 0.1.

Question: For SSEEQMCGKHRETKKIFCEVDRSLLCLLCSSSQEHRYHRHRPIEWAA [T9K], which abundance fitness is on record?
Answer: The abundance fitness was 0.185 ± 0.097.

Question: For SSEEQMCGGHRETKKIFCEVDRSLLCLLCSSSQEHRYHRHRPIEWAA [T9G], which abundance fitness is on record?
Answer: Its abundance fitness is -0.556 ± 0.091.

Question: Which abundance fitness does the source give for SSEEQMCGRHRETKKIFCEVDRSLLCLLCSSSQEHRYHRHRPIEWAA [T9R] here?
Answer: Its abundance fitness is -0.078 ± 0.079.

Question: For SSEEQMCGIHRETKKIFCEVDRSLLCLLCSSSQEHRYHRHRPIEWAA [T9I], which abundance fitness is on record?
Answer: Its abundance fitness is -0.074 ± 0.12.

Question: With SSEEQMCGDHRETKKIFCEVDRSLLCLLCSSSQEHRYHRHRPIEWAA [T9D] as the variant, how does the abundance fitness read?
Answer: Its abundance fitness is -0.395 ± 0.16.

Question: Which abundance fitness does the source give for SSEEQMCGFHRETKKIFCEVDRSLLCLLCSSSQEHRYHRHRPIEWAA [T9F] here?
Answer: The abundance fitness was -0.469 ± 0.23.

Question: For SSEEYMCGTHRETKKIFCEVDRSLLCLLCSSSQEHRYHRHRPIEWAA [Q5Y], which abundance fitness is on record?
Answer: Its abundance fitness is -0.002 ± 0.18.

Question: For SSEETMCGTHRETKKIFCEVDRSLLCLLCSSSQEHRYHRHRPIEWAA [Q5T], which abundance fitness is on record?
Answer: Its abundance fitness is -0.345 ± 0.12.

Question: Which abundance fitness does the source give for SSEENMCGTHRETKKIFCEVDRSLLCLLCSSSQEHRYHRHRPIEWAA [Q5N] here?
Answer: The abundance fitness was -0.337 ± 0.16.

Question: Which abundance fitness does the source give for SSEELMCGTHRETKKIFCEVDRSLLCLLCSSSQEHRYHRHRPIEWAA [Q5L] here?
Answer: Its abundance fitness is -0.044 ± 0.094.

Question: For SSEEPMCGTHRETKKIFCEVDRSLLCLLCSSSQEHRYHRHRPIEWAA [Q5P], which abundance fitness is on record?
Answer: Its abundance fitness is -0.251 ± 0.11.

Question: For SSEEKMCGTHRETKKIFCEVDRSLLCLLCSSSQEHRYHRHRPIEWAA [Q5K], which abundance fitness is on record?
Answer: Its abundance fitness is 0.165 ± 0.16.

Question: Which abundance fitness does the source give for SSEEMMCGTHRETKKIFCEVDRSLLCLLCSSSQEHRYHRHRPIEWAA [Q5M] here?
Answer: Its abundance fitness is 0.054 ± 0.12.

Question: With SSEERMCGTHRETKKIFCEVDRSLLCLLCSSSQEHRYHRHRPIEWAA [Q5R] as the variant, how does the abundance fitness read?
Answer: The abundance fitness was -0.097 ± 0.082.

Question: Which abundance fitness does the source give for SSEEWMCGTHRETKKIFCEVDRSLLCLLCSSSQEHRYHRHRPIEWAA [Q5W] here?
Answer: Its abundance fitness is -0.465 ± 0.12.

Question: Which abundance fitness does the source give for SSEEIMCGTHRETKKIFCEVDRSLLCLLCSSSQEHRYHRHRPIEWAA [Q5I] here?
Answer: The abundance fitness was -0.291 ± 0.27.

Question: With SSEEVMCGTHRETKKIFCEVDRSLLCLLCSSSQEHRYHRHRPIEWAA [Q5V] as the variant, how does the abundance fitness read?
Answer: The abundance fitness was -0.009 ± 0.096.

Question: For SSEESMCGTHRETKKIFCEVDRSLLCLLCSSSQEHRYHRHRPIEWAA [Q5S], which abundance fitness is on record?
Answer: Its abundance fitness is 0.114 ± 0.098.

Question: For SSEEQMCNTHRETKKIFCEVDRSLLCLLCSSSQEHRYHRHRPIEWAA [G8N], which abundance fitness is on record?
Answer: Its abundance fitness is -0.159 ± 0.15.

Question: For SSEEQMCHTHRETKKIFCEVDRSLLCLLCSSSQEHRYHRHRPIEWAA [G8H], which abundance fitness is on record?
Answer: Its abundance fitness is -0.468 ± 0.16.

Question: With SSEEQMCFTHRETKKIFCEVDRSLLCLLCSSSQEHRYHRHRPIEWAA [G8F] as the variant, how does the abundance fitness read?
Answer: Its abundance fitness is 0.229 ± 0.13.

Question: Which abundance fitness does the source give for SSEEQMCKTHRETKKIFCEVDRSLLCLLCSSSQEHRYHRHRPIEWAA [G8K] here?
Answer: The abundance fitness was -0.02 ± 0.11.

Question: For SSEEQMCDTHRETKKIFCEVDRSLLCLLCSSSQEHRYHRHRPIEWAA [G8D], which abundance fitness is on record?
Answer: The abundance fitness was -0.022 ± 0.11.

Question: For SSEEQMCSTHRETKKIFCEVDRSLLCLLCSSSQEHRYHRHRPIEWAA [G8S], which abundance fitness is on record?
Answer: The abundance fitness was -0.086 ± 0.089.

Question: For SSEEQMCATHRETKKIFCEVDRSLLCLLCSSSQEHRYHRHRPIEWAA [G8A], which abundance fitness is on record?
Answer: The abundance fitness was -0.005 ± 0.085.

Question: Which abundance fitness does the source give for SSEEQMCVTHRETKKIFCEVDRSLLCLLCSSSQEHRYHRHRPIEWAA [G8V] here?
Answer: Its abundance fitness is -0.02 ± 0.085.

Question: For SSEEQMCWTHRETKKIFCEVDRSLLCLLCSSSQEHRYHRHRPIEWAA [G8W], which abundance fitness is on record?
Answer: Its abundance fitness is -0.199 ± 0.094.

Question: Which abundance fitness does the source give for SSEEQMCQTHRETKKIFCEVDRSLLCLLCSSSQEHRYHRHRPIEWAA [G8Q] here?
Answer: The abundance fitness was -0.104 ± 0.14.

Question: For SSEEQMCCTHRETKKIFCEVDRSLLCLLCSSSQEHRYHRHRPIEWAA [G8C], which abundance fitness is on record?
Answer: Its abundance fitness is -0.017 ± 0.1.

Question: With SSEEQMCLTHRETKKIFCEVDRSLLCLLCSSSQEHRYHRHRPIEWAA [G8L] as the variant, how does the abundance fitness read?
Answer: The abundance fitness was -0.009 ± 0.086.

Question: With SSEEQMCYTHRETKKIFCEVDRSLLCLLCSSSQEHRYHRHRPIEWAA [G8Y] as the variant, how does the abundance fitness read?
Answer: The abundance fitness was -0.082 ± 0.15.

Question: With SSEEQMCTTHRETKKIFCEVDRSLLCLLCSSSQEHRYHRHRPIEWAA [G8T] as the variant, how does the abundance fitness read?
Answer: Its abundance fitness is -0.042 ± 0.11.

Question: Which abundance fitness does the source give for SSEEQMCMTHRETKKIFCEVDRSLLCLLCSSSQEHRYHRHRPIEWAA [G8M] here?
Answer: Its abundance fitness is 0.131 ± 0.096.

Question: Which abundance fitness does the source give for SSEEQICGTHRETKKIFCEVDRSLLCLLCSSSQEHRYHRHRPIEWAA [M6I] here?
Answer: Its abundance fitness is -0.855 ± 0.16.

Question: For SSEEQGCGTHRETKKIFCEVDRSLLCLLCSSSQEHRYHRHRPIEWAA [M6G], which abundance fitness is on record?
Answer: The abundance fitness was -0.553 ± 0.099.

Question: For SSEEQHCGTHRETKKIFCEVDRSLLCLLCSSSQEHRYHRHRPIEWAA [M6H], which abundance fitness is on record?
Answer: The abundance fitness was -0.215 ± 0.19.

Question: Which abundance fitness does the source give for SSEEQSCGTHRETKKIFCEVDRSLLCLLCSSSQEHRYHRHRPIEWAA [M6S] here?
Answer: Its abundance fitness is -0.57 ± 0.12.

Question: With SSEEQRCGTHRETKKIFCEVDRSLLCLLCSSSQEHRYHRHRPIEWAA [M6R] as the variant, how does the abundance fitness read?
Answer: Its abundance fitness is -0.338 ± 0.092.

Question: Which abundance fitness does the source give for SSEEQFCGTHRETKKIFCEVDRSLLCLLCSSSQEHRYHRHRPIEWAA [M6F] here?
Answer: Its abundance fitness is -0.769 ± 0.19.

Question: Which abundance fitness does the source give for SSEEQLCGTHRETKKIFCEVDRSLLCLLCSSSQEHRYHRHRPIEWAA [M6L] here?
Answer: Its abundance fitness is -0.13 ± 0.1.

Question: For SSEEQNCGTHRETKKIFCEVDRSLLCLLCSSSQEHRYHRHRPIEWAA [M6N], which abundance fitness is on record?
Answer: The abundance fitness was -0.958 ± 0.3.

Question: With SSEEQTCGTHRETKKIFCEVDRSLLCLLCSSSQEHRYHRHRPIEWAA [M6T] as the variant, how does the abundance fitness read?
Answer: The abundance fitness was -0.414 ± 0.12.

Question: Which abundance fitness does the source give for SSEEQKCGTHRETKKIFCEVDRSLLCLLCSSSQEHRYHRHRPIEWAA [M6K] here?
Answer: The abundance fitness was -0.581 ± 0.14.
